Data on 7 molecules can be found in article PMC7780238, “Structures of ISC th4 transpososomes reveal the role of asymmetry in copy‐out/paste‐in DNA transposition”.

Usually stoichiometry N stands for the number of molecules, sites or subunits per partner or assembly.

Series [1] deals with ISCth4 transposase (TnpA) (Clostridium thermocellum (ATCC 27405)). Nature of the series: AUC; sedimentation velocity, TnpA alone at 0.5-2 uM, 20 C, 50,000 RPM, 10 mM HEPES pH 7.5, 100 mM, 0.3 mM TCEP; monomer to dimer.
Series [2] shares this target. Nature of the series: AUC; sedimentation velocity, TnpA (0.5 or 5 uM) with molar excess of TIR DNA oligonucleotides (R-TIR26 at 4:1 DNA:TnpA; R35(j6)L35 or R35r41 with increasing DNA), 20 C, 10 mM HEPES pH 7.5, 100 mM, 0.3 mM TCEP.
In series [3] the target is T1, ISCth4 transposase (TnpA) (Clostridium thermocellum ATCC 27405, UniProt A3DBR0 1-407).
T1 sequence: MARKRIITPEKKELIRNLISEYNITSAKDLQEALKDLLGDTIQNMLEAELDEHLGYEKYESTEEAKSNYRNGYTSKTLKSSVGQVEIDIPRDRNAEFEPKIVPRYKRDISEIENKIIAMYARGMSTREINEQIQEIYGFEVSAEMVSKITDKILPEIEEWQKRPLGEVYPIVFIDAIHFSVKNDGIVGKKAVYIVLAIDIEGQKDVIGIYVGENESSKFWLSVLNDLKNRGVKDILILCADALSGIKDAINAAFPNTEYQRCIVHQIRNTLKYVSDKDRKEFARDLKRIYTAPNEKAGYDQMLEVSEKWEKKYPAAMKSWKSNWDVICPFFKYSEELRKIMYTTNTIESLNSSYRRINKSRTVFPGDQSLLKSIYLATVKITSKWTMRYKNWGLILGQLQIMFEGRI
The series can be described thus: SV AUC; 5 uM TnpA; 7.9 S, 138 kDa dimer:1 DNA, plus ~12 S at DNA:TnpA 0.25:1; SEC: 10 mM HEPES pH 7.5, 100 mM NaCl, 0.3 mM TCEP, 4 C. Crystals: PCC 25 mM HEPES pH 7.5, 150 mM NaCl, 2 mM TCEP, 20 C; PRC/STC1 10 mM HEPES pH 7.5, 100 mM NaCl. The settings on record: protein: recombinant; tags: Trx-His-TEV fusion removed by TEV; chain copies: 2; label: 5'FAM on strand 1 in the labeled version; blunt.

Series [4] concerns the target T1, ISCth4 transposase (TnpA). Nature of the series: X-ray crystallography; STC1; TnpA dimer on one DNA; ZnCl2 in drop; SEC: 10 mM HEPES pH 7.5, 100 mM NaCl, 0.3 mM TCEP, 4 C. Crystals: PCC 25 mM HEPES pH 7.5, 150 mM NaCl, 2 mM TCEP, 20 C; PRC/STC1 10 mM HEPES pH 7.5, 100 mM NaCl. The settings on record: protein: recombinant; tags: Trx-His-TEV fusion removed by TEV; chain copies: 2; 3 strands; blunt outer ends; 1-nt gap between S68 and S66.

In series [5] the target is T1, ISCth4 transposase (TnpA). The series can be described thus: SV AUC; 5 uM TnpA; ~7.9 S, plus ~12 S at DNA:TnpA 0.25:1; SEC: 10 mM HEPES pH 7.5, 100 mM NaCl, 0.3 mM TCEP, 4 C. Crystals: PCC 25 mM HEPES pH 7.5, 150 mM NaCl, 2 mM TCEP, 20 C; PRC/STC1 10 mM HEPES pH 7.5, 100 mM NaCl. The conditions noted are these: protein: recombinant; tags: Trx-His-TEV fusion removed by TEV; chain copies: 2; blunt.

In series [6] the target is T1, ISCth4 transposase (TnpA). Nature of the series: X-ray crystallography; PCC; TnpA dimer on one DNA, no metal in active site; 3.5 A native; SEC: 10 mM HEPES pH 7.5, 100 mM NaCl, 0.3 mM TCEP, 4 C. Crystals: PCC 25 mM HEPES pH 7.5, 150 mM NaCl, 2 mM TCEP, 20 C; PRC/STC1 10 mM HEPES pH 7.5, 100 mM NaCl. The conditions noted are these: protein: recombinant; tags: Trx-His-TEV fusion removed by TEV; chain copies: 2; blunt.

The target of series [7] is T1, ISCth4 transposase (TnpA). Nature of the series: X-ray crystallography; PRC; TnpA dimer on one DNA; 10 mM CaCl2 in precipitant; SEC: 10 mM HEPES pH 7.5, 100 mM NaCl, 0.3 mM TCEP, 4 C. Crystals: PCC 25 mM HEPES pH 7.5, 150 mM NaCl, 2 mM TCEP, 20 C; PRC/STC1 10 mM HEPES pH 7.5, 100 mM NaCl. The settings on record: protein: recombinant; tags: Trx-His-TEV fusion removed by TEV; chain copies: 2; blunt.

Series [8] addresses T1, ISCth4 transposase (TnpA). The series can be described thus: SEC; 40 uM TnpA; ~450 kDa, octamer with 4 TIRs; behaves like R-TIR; SEC: 10 mM HEPES pH 7.5, 100 mM NaCl, 0.3 mM TCEP, 4 C. Crystals: PCC 25 mM HEPES pH 7.5, 150 mM NaCl, 2 mM TCEP, 20 C; PRC/STC1 10 mM HEPES pH 7.5, 100 mM NaCl. The conditions noted are these: protein: recombinant; tags: Trx-His-TEV fusion removed by TEV; chain copies: 2; blunt. In general terms: Size exclusion chromatography separates by hydrodynamic size, large species first.

For the molecule ISCth4 transposase (TnpA) (enzyme), the stoichiometry N in series [1] and in series [2] was 2 in each case.

B1: R35(j6)L35 (dsDNA)
DNA 1: GCACTGGATGTTTACACAAAAATATTTACACTGCCTTTTTTGAGATTGTAAAATATTTTATGTAAACAGTGCACTG
DNA 2: CAGTGCACTGTTTACATAAAATATTTTACAATCTCAAAAAAGGCAGTGTAAATATTTTTGTGTAAACATCCAGTGC
In the case of B1, the binding result in series [3] is recorded as “binds”.

B2: R26(j6)L15-5'rec (dsDNA)
DNA 1: GTTTACACAAAAATATTTACACTGCCGTTTTGGAGATTGTAAAATAT
DNA 2: ATATTTTACAATCTCCAAAAC
DNA 3: GCAGTGTAAATATTTTTGTGTAAAC
As for B2, in series [4], the binding result is on record as “binds”.

B3: R35r41 (dsDNA)
DNA 1: GCACTGGATGTTTACACAAAAATATTTACACTGCCTTTTTTTACCTAGTCATCAATGCCTACGTACGTAACGTTAC
DNA 2: GTAACGTTACGTACGTAGGCATTGATGACTAGGTAAAAAAAGGCAGTGTAAATATTTTTGTGTAAACATCCAGTGC
For the molecule B3, the binding result in series [5] is given as “binds”.

B4: R-TIR26 (dsDNA)
DNA 1: GGCAGTGTAAATATTTTTGTGTAAAC
DNA 2: GTTTACACAAAAATATTTACACTGCC
As for B4, the binding result in series [6] is “binds”.

B5: fR-TIR26 (dsDNA)
DNA 1: TTTTTGGGCAGTGTAAATATTTTTGTGTAAAC
DNA 2: GTTTACACAAAAATATTTACACTGCCCAAAAA
Regarding B5, the binding result in series [7] is listed as “binds”.

B6: L-TIR26 (dsDNA)
DNA 1: GAGATTGTAAAATATTTTATGTAAAC
DNA 2: GTTTACATAAAATATTTTACAATCTC
Consider B6, for which, in series [8], the binding result is given as “binds”.
